In this data set the test system is Escherichia coli TOP10. The data set can be described thus: shrunken log2 fold change of peptide-encoding DNA abundance (4.5 h post-induction vs induction); higher = less antimicrobial activity (less host growth inhibition). As to conditions: time post-induction: 4.5 h; library: site-saturation at positions 5, 18, 19, 20.
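Further: peptides expressed intracellularly from a pBAD plasmid library in pooled LB shake-flask culture, induced with 0.3% L-arabinose, DNA abundance read by NGS, three biological replicates, DESeq2 with apeglm shrinkage.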

As for RRIRIRPPRLPRPRPRPAKHPRP, the “shrunken log2 fold change” value is -0.476. For RRIRFRPPRLPRPRPRPGAYPRP, the “shrunken log2 fold change” value was 0.116. As for RRIRSRPPRLPRPRPRPFLMPRP, the “shrunken log2 fold change” value stood at 3.07. As for RRIRGRPPRLPRPRPRPPEQPRP, the figure is 1.29. The same measure for RRIRCRPPRLPRPRPRPNCMPRP: -0.369. RRIRVRPPRLPRPRPRPMMCPRP: the “shrunken log2 fold change” value was -0.00174. Regarding RRIRMRPPRLPRPRPRPCPPPRP, the “shrunken log2 fold change” value stood at 0.106.

With RRIRGRPPRLPRPRPRPSLLPRP, the “shrunken log2 fold change” value was 0.547. As to RRIRERPPRLPRPRPRPLENPRP, the “shrunken log2 fold change” value was determined as 0.0225. For the sequence RRIRSRPPRLPRPRPRPQPKPRP, the “shrunken log2 fold change” value worked out at 0.526.

For the sequence RRIRFRPPRLPRPRPRPCWEPRP, the “shrunken log2 fold change” value was -0.356. Consider RRIRRRPPRLPRPRPRPSFIPRP, for which the “shrunken log2 fold change” value is -0.391.

For the sequence RRIRRRPPRLPRPRPRPMKMPRP, the “shrunken log2 fold change” value is 0.18. As for RRIRHRPPRLPRPRPRPQWPPRP, the figure is 0.112; as for RRIRMRPPRLPRPRPRPMADPRP, 1.11; as for RRIRWRPPRLPRPRPRPMYMPRP, 0.0903. As for RRIRERPPRLPRPRPRPYDQPRP, the figure is -0.518; as for RRIRIRPPRLPRPRPRPLKPPRP, -0.296; as for RRIRPRPPRLPRPRPRPCVTPRP, 0.15. On to RRIRRRPPRLPRPRPRPTTKPRP, for which the “shrunken log2 fold change” value is 0.0527. As for RRIRYRPPRLPRPRPRPCMFPRP, the “shrunken log2 fold change” value is -0.981. Consider RRIRWRPPRLPRPRPRPTVNPRP, for which the “shrunken log2 fold change” value is 0.0302. The same measure for RRIRDRPPRLPRPRPRPMFTPRP: -0.174; for RRIRCRPPRLPRPRPRPCRYPRP: -0.446. The same measure for RRIRVRPPRLPRPRPRPVVFPRP: 0.00477; for RRIRHRPPRLPRPRPRPYYMPRP: -0.636; for RRIRSRPPRLPRPRPRPPAVPRP: 0.711. As for RRIRIRPPRLPRPRPRPMIPPRP, the figure is 1.87; as for RRIRHRPPRLPRPRPRPMIAPRP, -0.0185; as for RRIRYRPPRLPRPRPRPDKNPRP, -0.558.

Take RRIRKRPPRLPRPRPRPTTEPRP: the “shrunken log2 fold change” value was 0.579. The same measure for RRIRIRPPRLPRPRPRPKCKPRP: -1.21; for RRIRTRPPRLPRPRPRPHVVPRP: -0.0414. On to RRIRFRPPRLPRPRPRPYSYPRP, for which the “shrunken log2 fold change” value is -0.268. The same measure for RRIRYRPPRLPRPRPRPQYMPRP: -0.192; for RRIRFRPPRLPRPRPRPKVYPRP: -0.382. The same measure for RRIRSRPPRLPRPRPRPTEMPRP: 0.233; for RRIRRRPPRLPRPRPRPQAKPRP: 0.418; for RRIRWRPPRLPRPRPRPRFQPRP: 0.199. As for RRIRQRPPRLPRPRPRPTCNPRP, the figure is -0.348; as for RRIRRRPPRLPRPRPRPNYEPRP, 0.0979; as for RRIRDRPPRLPRPRPRPRNGPRP, 0.0517. In the case of RRIRHRPPRLPRPRPRPFYGPRP, the “shrunken log2 fold change” value was -0.0135. Regarding RRIRERPPRLPRPRPRPNWYPRP, the “shrunken log2 fold change” value was -0.563.

As to RRIRARPPRLPRPRPRPYTLPRP, the “shrunken log2 fold change” value was -0.213. As for RRIRHRPPRLPRPRPRPYGNPRP, the figure is -0.298; as for RRIRDRPPRLPRPRPRPLYSPRP, -0.411. The same measure for RRIRVRPPRLPRPRPRPAHRPRP: -0.0183; for RRIRDRPPRLPRPRPRPFAFPRP: 0.249. As for RRIRVRPPRLPRPRPRPWGFPRP, the “shrunken log2 fold change” value is 0.0189. The same measure for RRIRTRPPRLPRPRPRPRFPPRP: 0.115; for RRIRMRPPRLPRPRPRPRDVPRP: 0.372. As for RRIRVRPPRLPRPRPRPHSGPRP, the figure is -0.022. On to RRIRWRPPRLPRPRPRPASSPRP, for which the “shrunken log2 fold change” value was -0.0381.

Turning to RRIRDRPPRLPRPRPRPMPWPRP, the “shrunken log2 fold change” value was -0.0438.

As for RRIRYRPPRLPRPRPRPVKHPRP, the “shrunken log2 fold change” value was -0.122. As to RRIRIRPPRLPRPRPRPESNPRP, the “shrunken log2 fold change” value is 0.0344. In the case of RRIRKRPPRLPRPRPRPFKPPRP, the “shrunken log2 fold change” value is 0.0806.

On to RRIRDRPPRLPRPRPRPNMIPRP, for which the “shrunken log2 fold change” value is -0.0358.

Regarding RRIRFRPPRLPRPRPRPMVPPRP, the “shrunken log2 fold change” value was 0.0354.

As for RRIRMRPPRLPRPRPRPVDKPRP, the “shrunken log2 fold change” value was 0.0379. For RRIRERPPRLPRPRPRPDEWPRP, the “shrunken log2 fold change” value is -0.215. The same measure for RRIRPRPPRLPRPRPRPVKMPRP: 0.137. Consider RRIRYRPPRLPRPRPRPIFGPRP, for which the “shrunken log2 fold change” value was -0.281. In the case of RRIRCRPPRLPRPRPRPGDHPRP, the “shrunken log2 fold change” value was -0.583. On to RRIRNRPPRLPRPRPRPVVDPRP, for which the “shrunken log2 fold change” value is -0.274. As for RRIRHRPPRLPRPRPRPPVKPRP, the figure is 0.0106. The same measure for RRIRMRPPRLPRPRPRPILLPRP: -0.0378; for RRIRPRPPRLPRPRPRPCMQPRP: -0.358. The same measure for RRIRSRPPRLPRPRPRPVCQPRP: -0.569; for RRIRARPPRLPRPRPRPNGRPRP: -0.11; for RRIRMRPPRLPRPRPRPYNQPRP: -0.486. Take RRIRTRPPRLPRPRPRPTLYPRP: the “shrunken log2 fold change” value was -0.102. As for RRIRVRPPRLPRPRPRPMYGPRP, the figure is -0.116; as for RRIRPRPPRLPRPRPRPTVFPRP, 0.0272; as for RRIRPRPPRLPRPRPRPSQPPRP, 0.122. As for RRIRARPPRLPRPRPRPDEPPRP, the “shrunken log2 fold change” value turned out to be 0.0489. The same measure for RRIRTRPPRLPRPRPRPYVSPRP: -0.244; for RRIRYRPPRLPRPRPRPVKSPRP: -0.84. RRIRERPPRLPRPRPRPEIAPRP: the “shrunken log2 fold change” value is -0.0389. The same measure for RRIRARPPRLPRPRPRPLDNPRP: 0.151; for RRIRRRPPRLPRPRPRPQAWPRP: 0.0536. As to RRIRTRPPRLPRPRPRPLYDPRP, the “shrunken log2 fold change” value is -0.824.

As to RRIRSRPPRLPRPRPRPIAGPRP, the “shrunken log2 fold change” value was -0.00669. Turning to RRIRYRPPRLPRPRPRPAIYPRP, the “shrunken log2 fold change” value was -0.121.

On to RRIRSRPPRLPRPRPRPSTLPRP, for which the “shrunken log2 fold change” value was 0.658. As for RRIRERPPRLPRPRPRPMMVPRP, the figure is 0.0544. The same measure for RRIRKRPPRLPRPRPRPRMSPRP: -0.216. The same measure for RRIRKRPPRLPRPRPRPGTKPRP: 0.0906.

Take RRIRSRPPRLPRPRPRPVLIPRP: the “shrunken log2 fold change” value was -0.000674. Take RRIRHRPPRLPRPRPRPWWKPRP: the “shrunken log2 fold change” value was -0.0848. As for RRIRGRPPRLPRPRPRPSNRPRP, the figure is 0.113; as for RRIRNRPPRLPRPRPRPPECPRP, 0.015; as for RRIRLRPPRLPRPRPRPFDFPRP, -0.281. The same measure for RRIRPRPPRLPRPRPRPWTCPRP: -0.0575. The same measure for RRIRQRPPRLPRPRPRPTHHPRP: 0.0945.

For RRIRTRPPRLPRPRPRPIQFPRP, the “shrunken log2 fold change” value was -0.0251. As for RRIRCRPPRLPRPRPRPTFHPRP, the figure is -0.366; as for RRIRFRPPRLPRPRPRPNEHPRP, -0.525; as for RRIRGRPPRLPRPRPRPKISPRP, 0.477. Take RRIRMRPPRLPRPRPRPQKNPRP: the “shrunken log2 fold change” value was found to be 0.628. As for RRIRERPPRLPRPRPRPHTSPRP, the figure is -0.122; as for RRIRERPPRLPRPRPRPLASPRP, 0.16; as for RRIRCRPPRLPRPRPRPLVPPRP, -0.202.

Take RRIRMRPPRLPRPRPRPGMNPRP: the “shrunken log2 fold change” value was -0.00589. Regarding RRIRERPPRLPRPRPRPVPIPRP, the “shrunken log2 fold change” value amounted to 0.343.

As to RRIRSRPPRLPRPRPRPRHLPRP, the “shrunken log2 fold change” value is -0.319. The same measure for RRIRDRPPRLPRPRPRPWAGPRP: 0.0503. On to RRIRSRPPRLPRPRPRPDNLPRP, for which the “shrunken log2 fold change” value was -0.0926. Turning to RRIRQRPPRLPRPRPRPQAQPRP, the “shrunken log2 fold change” value was determined as 0.0471. The same measure for RRIRARPPRLPRPRPRPMRKPRP: -0.046; for RRIRIRPPRLPRPRPRPCHRPRP: -0.452; for RRIRCRPPRLPRPRPRPPGKPRP: 0.141.

Consider RRIRQRPPRLPRPRPRPRRRPRP, for which the “shrunken log2 fold change” value was determined as 0.255.

In the case of RRIRPRPPRLPRPRPRPFLHPRP, the “shrunken log2 fold change” value was -0.273. Consider RRIRWRPPRLPRPRPRPDENPRP, for which the “shrunken log2 fold change” value worked out at 0.644.

Take RRIRIRPPRLPRPRPRPRETPRP: the “shrunken log2 fold change” value amounted to 0.0956.

Regarding RRIRHRPPRLPRPRPRPYQHPRP, the “shrunken log2 fold change” value was -0.0148. RRIRTRPPRLPRPRPRPLMIPRP: the “shrunken log2 fold change” value was -0.0131.

Regarding RRIRWRPPRLPRPRPRPYRSPRP, the “shrunken log2 fold change” value turned out to be 0.0201. As for RRIRSRPPRLPRPRPRPWELPRP, the “shrunken log2 fold change” value is 0.637. The same measure for RRIRVRPPRLPRPRPRPIVLPRP: -0.176; for RRIRRRPPRLPRPRPRPFWFPRP: -0.138. Regarding RRIRVRPPRLPRPRPRPKHCPRP, the “shrunken log2 fold change” value stood at 0.0148. As for RRIRMRPPRLPRPRPRPTPIPRP, the figure is 0.255.

Values taken from the supplement of paper PMC9112550, “Optimization of the antimicrobial peptide Bac7 by deep mutational scanning” (BMC Biology, 2022).
